Each substance was assayed against CD20 (B-lymphocyte antigen CD20) (human) (UniProt P11836) (assay: cell-based or functional assay).
Chain of CD20 (B-lymphocyte antigen CD20) (human) (P11836 whole entry): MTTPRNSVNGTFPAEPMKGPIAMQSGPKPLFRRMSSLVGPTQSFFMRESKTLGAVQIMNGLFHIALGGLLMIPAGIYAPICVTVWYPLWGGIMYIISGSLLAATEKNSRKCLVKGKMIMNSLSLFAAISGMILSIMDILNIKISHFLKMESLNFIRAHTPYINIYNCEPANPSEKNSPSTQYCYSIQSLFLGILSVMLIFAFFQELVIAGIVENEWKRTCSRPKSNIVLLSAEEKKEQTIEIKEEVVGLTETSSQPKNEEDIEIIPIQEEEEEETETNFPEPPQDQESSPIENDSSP

Row | Substance | EC50 (ng/ml) values of direct cell death induction using Z-138 (% total AnnV positive cells) [ng/mL]
1 | GA101-V11F P329G L234A L235A (antibody) | 131
2 | GA101-P151F hin del (on GA101 P329G L234A L235A backbone) (antibody) | 68.4
3 | GA101-P151F P329G L234A L235A (antibody) | 133
4 | GA101-V11F P151F (on GA101 P329G L234A L235A backbone) (antibody) | 112
5 | GA101-hinge del P329G L234A L235A (antibody) | 155
6 | GA101-V11F P151F hinge del (on GA101 P329G L234A L235A backbone) (antibody) | 171
